{
  "source": "the supplement of paper PMC10567573",
  "parents": {"B1": {"name": "ETS1 (parent)", "chain": "FSEPSFITESYQTLHPISSEELLS"}},
  "data": [
    {"variants_of": "B1", "test": "protein stability index of a GFP-peptide fusion (GPS, HEK-293T) (PSI 1-6); higher = more stable", "conditions": "c terminus: a fixed tail appended", "values": [
      {"variant": "FSEPSFITESYQTLHPESSEELLS", "note": "[I17E]", "protein stability index": 2.39},
      {"variant": "FSEPSFITESYQTLHPHSSEELLS", "note": "[I17H]", "protein stability index": 1.76},
      {"variant": "FSEPSFITESYQTLHPFSSEELLS", "note": "[I17F]", "protein stability index": 1.84},
      {"variant": "FSEPSFITESYQTLHPLSSEELLS", "note": "[I17L]", "protein stability index": 2.45},
      {"variant": "FSEPSFITESYQTLHPRSSEELLS", "note": "[I17R]", "protein stability index": 2.59},
      {"variant": "FSEPSFITESYQTLHPDSSEELLS", "note": "[I17D]", "protein stability index": 2.12},
      {"variant": "FSEPSFITESYQTLHPNSSEELLS", "note": "[I17N]", "protein stability index": 2.34},
      {"variant": "FSEPSFITESYQTLHPCSSEELLS", "note": "[I17C]", "protein stability index": 1.74},
      {"variant": "FSEPSFITESYQTLHPKSSEELLS", "note": "[I17K]", "protein stability index": 2.36},
      {"variant": "FSEPSFITESYQTLHPTSSEELLS", "note": "[I17T]", "protein stability index": 2.78},
      {"variant": "FSEPSFITESYQTLHPMSSEELLS", "note": "[I17M]", "protein stability index": 1.78},
      {"variant": "FSEPSFITESYQTLHPPSSEELLS", "note": "[I17P]", "protein stability index": 2.34},
      {"variant": "FSEPSFITESYQTLHPSSSEELLS", "note": "[I17S]", "protein stability index": 2.14},
      {"variant": "FSEPSFITESYQTLHPQSSEELLS", "note": "[I17Q]", "protein stability index": 2.31},
      {"variant": "FSEPSFITESYQTLHPVSSEELLS", "note": "[I17V]", "protein stability index": 2.14},
      {"variant": "FSEPSFITESYQTLHPGSSEELLS", "note": "[I17G]", "protein stability index": 1.81},
      {"variant": "FSEPSFITESYQTLHPASSEELLS", "note": "[I17A]", "protein stability index": 2.33},
      {"variant": "FSEPSFITLSYQTLHPISSEELLS", "note": "[E9L]", "protein stability index": 1.5},
      {"variant": "FSEPSFITKSYQTLHPISSEELLS", "note": "[E9K]", "protein stability index": 1.97},
      {"variant": "FSEPSFITNSYQTLHPISSEELLS", "note": "[E9N]", "protein stability index": 1.62},
      {"variant": "FSEPSFITISYQTLHPISSEELLS", "note": "[E9I]", "protein stability index": 2.57},
      {"variant": "FSEPSFITYSYQTLHPISSEELLS", "note": "[E9Y]", "protein stability index": 1.77},
      {"variant": "FSEPSFITWSYQTLHPISSEELLS", "note": "[E9W]", "protein stability index": 2.06},
      {"variant": "FSEPSFITQSYQTLHPISSEELLS", "note": "[E9Q]", "protein stability index": 2.02},
      {"variant": "FSEPSFITFSYQTLHPISSEELLS", "note": "[E9F]", "protein stability index": 2.58},
      {"variant": "FSEPSFITASYQTLHPISSEELLS", "note": "[E9A]", "protein stability index": 1.76},
      {"variant": "FSEPSFITVSYQTLHPISSEELLS", "note": "[E9V]", "protein stability index": 2.05},
      {"variant": "FSEPSFITTSYQTLHPISSEELLS", "note": "[E9T]", "protein stability index": 1.94},
      {"variant": "FSEPSFITSSYQTLHPISSEELLS", "note": "[E9S]", "protein stability index": 2.25},
      {"variant": "FSEPSFITGSYQTLHPISSEELLS", "note": "[E9G]", "protein stability index": 1.88},
      {"variant": "FSEPSFITCSYQTLHPISSEELLS", "note": "[E9C]", "protein stability index": 2.25},
      {"variant": "FSEPSFITMSYQTLHPISSEELLS", "note": "[E9M]", "protein stability index": 2.32},
      {"variant": "FSEPSFITPSYQTLHPISSEELLS", "note": "[E9P]", "protein stability index": 1.75},
      {"variant": "FSEPSFITHSYQTLHPISSEELLS", "note": "[E9H]", "protein stability index": 2},
      {"variant": "FSEPSFITDSYQTLHPISSEELLS", "note": "[E9D]", "protein stability index": 1.88},
      {"variant": "FSEPSFITRSYQTLHPISSEELLS", "note": "[E9R]", "protein stability index": 2.24},
      {"variant": "FSEPSFITESYQTLHKISSEELLS", "note": "[P16K]", "protein stability index": 1.88},
      {"variant": "FSEPSFITESYQTLHDISSEELLS", "note": "[P16D]", "protein stability index": 1.81},
      {"variant": "FSEPSFITESYQTLHWISSEELLS", "note": "[P16W]", "protein stability index": 1.17},
      {"variant": "FSEPSFITESYQTLHIISSEELLS", "note": "[P16I]", "protein stability index": 1.6},
      {"variant": "FSEPSFITESYQTLHAISSEELLS", "note": "[P16A]", "protein stability index": 1.68},
      {"variant": "FSEPSFITESYQTLHMISSEELLS", "note": "[P16M]", "protein stability index": 1.47},
      {"variant": "FSEPSFITESYQTLHGISSEELLS", "note": "[P16G]", "protein stability index": 2.19},
      {"variant": "FSEPSFITESYQTLHEISSEELLS", "note": "[P16E]", "protein stability index": 1.95},
      {"variant": "FSEPSFITESYQTLHTISSEELLS", "note": "[P16T]", "protein stability index": 1.9},
      {"variant": "FSEPSFITESYQTLHRISSEELLS", "note": "[P16R]", "protein stability index": 1.69},
      {"variant": "FSEPSFITESYQTLHYISSEELLS", "note": "[P16Y]", "protein stability index": 1.67},
      {"variant": "FSEPSFITESYQTLHNISSEELLS", "note": "[P16N]", "protein stability index": 1.89},
      {"variant": "FSEPSFITESYQTLHLISSEELLS", "note": "[P16L]", "protein stability index": 3.29},
      {"variant": "FSEPSFITESYQTLHQISSEELLS", "note": "[P16Q]", "protein stability index": 2.13},
      {"variant": "FSEPSFITESYQTLHFISSEELLS", "note": "[P16F]", "protein stability index": 2.08},
      {"variant": "FSEPSFITESYQTLHVISSEELLS", "note": "[P16V]", "protein stability index": 2.16},
      {"variant": "FSEPSFITESYQTLHHISSEELLS", "note": "[P16H]", "protein stability index": 1.81},
      {"variant": "FSEPSFITESYQTLHSISSEELLS", "note": "[P16S]", "protein stability index": 2.21},
      {"variant": "FSEPSFITESYQTLHCISSEELLS", "note": "[P16C]", "protein stability index": 2.07},
      {"variant": "FSEPSFITESYITLHPISSEELLS", "note": "[Q12I]", "protein stability index": 1.58},
      {"variant": "FSEPSFITESYATLHPISSEELLS", "note": "[Q12A]", "protein stability index": 2.1},
      {"variant": "FSEPSFITESYDTLHPISSEELLS", "note": "[Q12D]", "protein stability index": 2.52},
      {"variant": "FSEPSFITESYETLHPISSEELLS", "note": "[Q12E]", "protein stability index": 2.27},
      {"variant": "FSEPSFITESYKTLHPISSEELLS", "note": "[Q12K]", "protein stability index": 1.85},
      {"variant": "FSEPSFITESYNTLHPISSEELLS", "note": "[Q12N]", "protein stability index": 2.26},
      {"variant": "FSEPSFITESYPTLHPISSEELLS", "note": "[Q12P]", "protein stability index": 1.91},
      {"variant": "FSEPSFITESYSTLHPISSEELLS", "note": "[Q12S]", "protein stability index": 1.88},
      {"variant": "FSEPSFITESYCTLHPISSEELLS", "note": "[Q12C]", "protein stability index": 2.24},
      {"variant": "FSEPSFITESYVTLHPISSEELLS", "note": "[Q12V]", "protein stability index": 1.62},
      {"variant": "FSEPSFITESYGTLHPISSEELLS", "note": "[Q12G]", "protein stability index": 1.84},
      {"variant": "FSEPSFITESYYTLHPISSEELLS", "note": "[Q12Y]", "protein stability index": 1.56},
      {"variant": "FSEPSFITESYRTLHPISSEELLS", "note": "[Q12R]", "protein stability index": 1.92},
      {"variant": "FSEPSFITESYWTLHPISSEELLS", "note": "[Q12W]", "protein stability index": 2.42},
      {"variant": "FSEPSFITESYTTLHPISSEELLS", "note": "[Q12T]", "protein stability index": 1.59},
      {"variant": "FSEPSFITESYFTLHPISSEELLS", "note": "[Q12F]", "protein stability index": 1.98},
      {"variant": "FSEPSFITESYHTLHPISSEELLS", "note": "[Q12H]", "protein stability index": 2.05},
      {"variant": "FSEPSFITESYMTLHPISSEELLS", "note": "[Q12M]", "protein stability index": 1.95},
      {"variant": "FSEPSFITESYLTLHPISSEELLS", "note": "[Q12L]", "protein stability index": 2.45},
      {"variant": "FSEPSFIEESYQTLHPISSEELLS", "note": "[T8E]", "protein stability index": 3.4},
      {"variant": "FSEPSFIRESYQTLHPISSEELLS", "note": "[T8R]", "protein stability index": 2.12},
      {"variant": "FSEPSFIGESYQTLHPISSEELLS", "note": "[T8G]", "protein stability index": 2.05},
      {"variant": "FSEPSFIKESYQTLHPISSEELLS", "note": "[T8K]", "protein stability index": 2.32},
      {"variant": "FSEPSFIAESYQTLHPISSEELLS", "note": "[T8A]", "protein stability index": 2.29},
      {"variant": "FSEPSFILESYQTLHPISSEELLS", "note": "[T8L]", "protein stability index": 1.92},
      {"variant": "FSEPSFIVESYQTLHPISSEELLS", "note": "[T8V]", "protein stability index": 1.36},
      {"variant": "FSEPSFINESYQTLHPISSEELLS", "note": "[T8N]", "protein stability index": 2.91},
      {"variant": "FSEPSFIHESYQTLHPISSEELLS", "note": "[T8H]", "protein stability index": 2.04},
      {"variant": "FSEPSFIYESYQTLHPISSEELLS", "note": "[T8Y]", "protein stability index": 2.17},
      {"variant": "FSEPSFIDESYQTLHPISSEELLS", "note": "[T8D]", "protein stability index": 3.47},
      {"variant": "FSEPSFICESYQTLHPISSEELLS", "note": "[T8C]", "protein stability index": 2.22},
      {"variant": "FSEPSFIQESYQTLHPISSEELLS", "note": "[T8Q]", "protein stability index": 2.59},
      {"variant": "FSEPSFIPESYQTLHPISSEELLS", "note": "[T8P]", "protein stability index": 3.5},
      {"variant": "FSEPSFIIESYQTLHPISSEELLS", "note": "[T8I]", "protein stability index": 1.98},
      {"variant": "FSEPSFIFESYQTLHPISSEELLS", "note": "[T8F]", "protein stability index": 1.95},
      {"variant": "FSEPSFISESYQTLHPISSEELLS", "note": "[T8S]", "protein stability index": 2.38},
      {"variant": "FSEPSFIMESYQTLHPISSEELLS", "note": "[T8M]", "protein stability index": 1.78},
      {"variant": "FSEPSFITESKQTLHPISSEELLS", "note": "[Y11K]", "protein stability index": 2.81},
      {"variant": "FSEPSFITESWQTLHPISSEELLS", "note": "[Y11W]", "protein stability index": 1.34}
    ]}
  ]
}
